From the DeepSol protein solubility set

test: soluble on expression in E. coli; label from the status in PepcDB or PDB records

Sequence	soluble on expression in E. coli
MDSLPTSATNGPAGLSAEADAEPHARLTFDLDVDLCVIGAGLAGLSVALEAAQAGLSVAVLESGRIGWGASGHNLGSVTPGYGVPIGDLIARVGLDHASALWALTREGMEIVRARATEEAMPGVALSDGALEVSNVDIGDRLVERLQTLGVDFGSEVEGWPIDKVRDVLRTNRYFHGIHYPTAFQLDGRRYLRGLERLARQAGARIFEETPAVSIDFAGIRKRISTPNARLRASDIVLAGSVHLGAPSPRVAETLLPVWRTAALTAPLGEQLPDAIAFAGSIADTDGVDHYRIVGGDRLLWASGETTFDVAPQRLAGIIRRRIAAVFPQLGQVEIAQTFSAAVGMTVHGMPQVGELRPGLWVASGFGRQGLATTAIAGRLIARGLTHSDERWKLFSPFDLVWAGGTIGRIVGQGVYFATREGALAAGALARYRERAAARTRVRDARAEVKQEERRARVALLRAAEAANVPPPNAPSRRPVPPPSPELEHHHHHH	not soluble
FRYDNTTPKTLRHVALLLEQGIETNDFYSGLHRRELKQTRLEGYILQHFSIIDGCVGVMKLTSELLAEYDVTANESAAFVNSFSDVE	soluble
MTSRVDPANPGSELDSAIRDTLTYSNSPVPNALLTASESGFLDAAGIELDVLSGQQGTVHFTYDQPAYTRFGGEIPPLLSEGLRAPGRTRLLGITPLLGRQGFFVRDDSPITAAADLAGRRIGVSASAIRILRGQLGDYLELDPWRQTLVALGSWEARALLHTLEHGELGVDDVELVPISSPGVDVPAEQLEESATVKGADLFPDVARGQAAVLASGDVDALYSWLPWAGELQATGARPVVDLGLDERNAYASVWTVSSGLVRQRPGLVQRLVDAAVDAGLWARDHSDAVTSLHAANLGVSTGAVGQGFGADFQQRLVPRLDHDALALLERTQQFLLTNNLLQEPVALDQWAAPEFLNNSLNRHR	soluble
MAHHHHHHMLSGITFEIFLFNFEIYHDFSSPLLFSLAIRIVIACGIPSMTNSSVQQVGCRVTYIWLSGKDSHHDIRSKDRTIYISPDDLEKDPKELLRLDMFPVWNFDGSSTGQAEGLITEIHIKPVNAYHCCIPRASSSVPWIVVLAECFLPTGEPTPDNSRAVARRIFDKGLGTHPWFGMEQEYFLVKDGHPYGWCPTCPPASQGPYYCATGSECIRGRKHVDLHYEVCLQMGLKICGTNAEVAFGQWEFQVGPCEGIEMGDQLVVARWVLLRILELEGLDADFRAKPILGDWNGSGLHTNFSTEATRAPGGLEVIYQYIERLKETSSKDIIFYGVDNNERLIGKHETSKLNETTFGIGTRGTSIRIPTAVAAAQSGYMEDRRPAAGADPYLVSSRLFASCLSVDAVELDFSSPRHEREWMASTSKV	not soluble
MSLNFPHLSKQSLGLYPVVDDVSWIERLLPLGINTIQLRIKDPYQPDLEQQIARAIELGRQYDAQVFINDYWQLAIKHGAFGVHLGQEDIEDSNLSQLSTAGICLGLSTHGYYELLRIVQINPSYIALGHIFSTTTKQMPSKPQGLVRLALYQKLNDSIPYGESVGYPTVAIGGIDQSNAEQVWQCGVSSLAVVRAITLSESPKQVIEFFDQLMNTTSTSLVMEDYRAYEGHHHHHH	not soluble
MAHHHHHHMATAKELGPGGLREDGRPIFIATDHTKFTPSTKQELTDQQKLAWKSFQLWRTTLGIERRDNVYKTLTNSDYTNFRLGTHILGTPYPVIETVPGFFDVFKAVRWYEHAISLAVALGYGYWIRSKASTRYSRMMPMSRTSITMLTFISTDLCFCYRSMYRLTGYLPNEYECFKYGVLEDKDKLQRKKELWEKYANHKREWCRRYDYHVYGIRPGETFSFFSACMIPSWEPRYNTRTDYPPRKNPYFLTSTPLRDTFLESPFTYEIPKDETVPLVRERPELKYLYRGPGRTTPPSDEK	not soluble
PTKLETFPLDVLVNTAAEDLPRGVDPSRKENHLSDEDFKAVFGMTRSAFANLPLWKQQNLKKEKGLF	soluble
MPQALSTDILIVGGGIAGLWLNARLRRAGYATVLVESASLGGGQSVKSQGIIHGGAKYALHGALTGASEAIADMPRRWRACLGSDGELDLRGVRLLSEAHYLWSPGGLAGSLTSFFASKAVRSRVEQAKGEDLPPALRDKGFKGKAYRLTEIVFDVPDLIRRLAELAGDSLLAGERIEPLREGRELAGLCVDGREIRAQRVVLSAGAGNEALLRELGLEQPAMQRRPLHMVMVKAATLKPLYAHCLGAGPKPRITVTTHPTRDGQSVWYLGGDIAETDGVARDEAAQIAEARRELAKLLPWIDLGQAQWATLRVDRAEPAQSNLLRPDNAFLAEQGRLLVGWPTKLALAPDFADRVCARLEEDGIRPSEHAALPQLPRPPLAEPAWEVAFALEHHHHHH	not soluble
QAKQTMQTLSTLNELGSKVEEVRNFFNFELPYRVKHVDQVSLKLQLVYAVRLQLESEVSDANGPDVTQLLYSTDRFLESARAFIGSDGELVSLAEQLHTSRGAENNSQQIENMYYRLGALVLESIFSDSNTNTDTYRELDLLFIESDSLSTGERSAFQRRLAQTSSVLAANAQGSYLANQLLKPDFPNQLVSMKATLEQK	not soluble
MTEHKSGFVSIIGRPNVGKSTFVNRVIGHKIAIMSDKAQTTRNKIQGVMTRDDAQIIFIDTPGIHKPKHKLGDYMMKVAKNTLSEIDAIMFMVNANEEIGRGDEYIIEMLKNVKTPVFLVLNKIDLVHPDELMPKIEEYQSYMDFTEIVPISALEGLNVDHFIDVLKTYLPEGPKYYPDDQISDHPEQFVVGEIIREKILHLTSEEIPHAIGVNVDRMVKESEDRVHIEATIYVERDSQKGIVIGKGGKKLKEVGKRARRDIEMLLGSKVYLELWVKVQRDWRNKVNFIRQIGYVEDQD	not soluble
MGVISAYAVVHERAAIIDPGTAKGAEIILDEIDRSWNVEYICPTHIHIDHGGGAARLAKALDAKIIVHPRGVKHVVNPEKLWEASKAVLGEVAEIYGKPESIDESKVIAVEDEQEFDLGGERLKVFHAPGHAPHMLVYYLTNSKVLFPADAVGMCFGGVVFPLTPPPFDADAALKTLKRLKGLKVDYVAFTHYGVVELEHHHHHH	soluble
MNIKKLAILGTLATTFSFEAFASTGMPKIEELTGDTRTACEVILCLSSAQGRGIKECQAPLRKYFSIRAKKWHKTLAKRRAFLDLCPAANENAKMSALTTAIQHQEYACDAGTLNSRTETRRNWVRRSSEDGGSFSRRLVRTQAYIPDFCKALYDHEFTEYKQIQKPKYVCDANKWYSQADWNRGFERVEVSRKWNHREDRYDIQYKDVPIKKDCWELEHHHHHH	not soluble
MAHHHHHHMGKNETDTDVLTSNVEVGSVLSQCAESRVHECNFYGYRAVCKHRFPKAYRHPALDQRLREQRTVREGRALARCLKNGVLAPTVFAVDRERCAIVMERIDGLTVREIFNHEQGNVAQGKTDVSFLVSFLLRGMGEVVGLLHNADIIHGDLTTSNFMCKRNFLERRLSTENLASNTSSRDSIVVLDFGLVMDKNSAEERAVDLYVLERALKSSHPFLEHVATRLVLEGYHRTVDPQKGSVTMARLEAVRARGRKRSMIG	not soluble
GPGSMTGRTSSVSENHLGFSAEGGVVNYALLQPHRTEAERRPLAPSEVAQHLMASAAAASGATHSATGGSGAHTMRQCTPKELATRSSKVVTLYDLAGHERYLKTTVLGMTRNMPDYACIVISANNGIQRMTKEHLALCLALKLPFFIVVTRIDSTPPNIHDETLSNIHKLLKIPTVRKLSYPVRRHDEVTLAAKNCAMIALPRSSKSATLPVLASLTYCNSLTYSRLGRTGGRRATCQRR	not soluble
PFSWMKFVVISRTDLEENGREILIHECAHIRKHHSWDLLIADICIFFQWFNPGAWLLKQELQNIHEYEADEAVINEGINARDYQLLLI	not soluble
MAHHHHHHMNSNPTTEMTTTKKEHSQDNMCEIMNKSDKNNNSSLSSRSEKSQSEEIKLCNSGIFNEDKEKQYNDFLKSYNAEYSVEQMKNFLKNGITENGVRILTTDKCSWLYDYYRITKTSDPCVKELTGNTTVDYYYYTTPFSTQIGNINLVMMHSQVNFGDGTCAPADRFFKMNSTTPEMIKEAKLKAKNFQYECMQYI	not soluble
MGSDKIHHHHHHAITVEENPNMMYMLVGSYATPEEEGIKVYNFDEQNGNSQYISGIKGISNPSFLIPSADGERIYAVGEDSGKSSTANAIKFDKEQKKLTLLNSQPTDGGAPCYITLSPSEKFVLTANYIGGSITVFPLDKDGKLKSETRLISFTGNSLDKERQTQPHLHCIEFTPDHKYLLASDLGTDQIHVFPVSENVTDGVSHSLLNESEEFNIKVESGSGPRHICFHPNQKFAYLINEISGKVIAFSYDKGKLNAIQYIEADTVGAKGSGDIHISPDGKFLYASNRLKADGIAIFSINQEEGTLTKTGYQLTGIHPRNFIISRNGRYLLVACRDSNSIQVFERDSQTGLLKDTGKTIKTNKPVCLKFTF	not soluble
MNMTIFIVFVICLSCVSLSLGTETCPPLTTIKPPDDIQKSLFYPSNWNDDLPTPNFAAGQKCSFKVIGPVVPQIRTVHAKSPPLALNAMSSTNPIVVKSDTHVSFLPIPQNYNYLDPILRSVQVYDGPTIDSTHLGTLYQAIASNNSLVSSGKYLTFYSLSWYYSVRNIVILQDYSDIQNYASYQAFTCHNSCGVSLDASKGTAAVLLFNSLSFVNQLSMSDNNSTLSVYTNSISDDNKLSDYSYSNSQTNIPQKFVGNYTIFVLDKGQANLSLKTYTPNNAWWSYVFYGQRGFFASPNFGTSDSDQNLCDAVSINGKHPAKITYTVDRSAIVGPAVLTVSIGGNITIYDVTNLPGPDPISAIGMSIAVNYESNGVISTGAFVSFEFQKSATSNGILFTIVLTICMAIFF	not soluble
SAPVEHVVADAGAFLRHAALQDIGKNIYTIREVVTEIRDKATRRRLAVLPYELRFKEPLPEYVRLVTEFSKKTGDYPSLSATDIQVLALTYQLEAEFVGVSHLKQEPQKVKVSSSIQHPETPLHISGFHLPYKPKPPQETEKGHSACEPENLEFSSFMFWRNPLPNIDHELQELLIDRGEDVPSEEEEEEENGFEDRKDDSDDDGGGWITPSNIKQIQQELEQCDVPEDVRVGCLTTDFAMQNVLLQMGLHVLAVNGMLIREARSYILRCHGCFKTTSDMSRVFCSHCGNKTLKKVSVTVSDDGTLHMHFSRNPKVLNPRGLRYSLPTPKGGKYAINPHLTEDQRFPQLRLSQKARQKTNVFAPDYIAGVSPFVENDISSRSATLQVRDSTLGAGRRRLNPNASRKKFVKKR	soluble
MYRLQIEKIRGFRDFYPEDMDVEKFIFKTAEEAAEAFGFRRIDFPSLEYLDLYRIKSGEELLQQTYSFVDKGGREVTLIPEATPSTVRMVTSRKDLQRPLRWYSFPKVWRYEEPQAGRYREHYQFNADIFGSDSPEADAEVIALASSILDRLGLQDIYEIRINSRKIMEEIIGGMTSSDPFSVFSIIDRYHKISREEFVDQLRSAGIGEDGVSMIADLCSGTRGIDEMARITGKSSEEIARMAAVEDLLASYGVKNVRYDFSIVRGLSYYTGIVFEAYDRSGQFRAILGGGRYDNLASLMSGESVPAVGFGMGDAVISLLLKRENVQIPREKKSVYICRVGKINSSIMNEYSRKLRERGMNVTVEIMERGLSAQLKYASAIGADFAVIFGERDLERGVVTIRNMYTGSQENVGLDSVVEHLISQATLEHHHHHH	soluble
MGSDKIHHHHHHMKALIFDVDDTLYDQIQPFERALERHIEVAREQIEPLYLSFRRYADEVFEATAIGKMSLKDSHIYRMKHALADFGYQVSDATALAIQIDYDYFQGQIELSPVFPEIFSWCQAQGIAMGIITNGPYRHQLRKIRTMGLVNWFELEHVLISGQVGITKPNPAIFQLMEERLGMSGEDICYLGDSFENDVVGAKAANWKAIWFNHRKRVEPTAPYYAYYVVTDWDELVEVIQSF	not soluble
MYLKETLDQFTSINNILKLLKKSPGFNKYCIQERLPKETVITSDKRRKYIYIIEDGFMKLVFEGTNKHNFSYILQKGAFPHLPVYTEDIPKHMMLIALTDVVWWKIEFQFFKEMMELEDPRNYIMLHQLAETRRRLYIIAVQEKLSSRESIYFSLNTMIDYGLRVSEKAVELPKFLTYQILADNSNTSKSYTSKVLSNLREKGILESQKKPWRINDVQKLQELIDAEALLAIL	not soluble
